The results in this text go back to PMC11039992, “Distinct functions for the paralogous RBM41 and U11/U12-65K proteins in the minor spliceosome”.

Broadly, the Kd is the free concentration of one partner at which half of the binding sites on the other are occupied at equilibrium, for simple one-to-one binding.

In data set [1] the target is T1, U11/U12-65K C-terminal RRM (65K C-RRM) (Homo sapiens, UniProt Q96LT9 380-517).
T1 sequence: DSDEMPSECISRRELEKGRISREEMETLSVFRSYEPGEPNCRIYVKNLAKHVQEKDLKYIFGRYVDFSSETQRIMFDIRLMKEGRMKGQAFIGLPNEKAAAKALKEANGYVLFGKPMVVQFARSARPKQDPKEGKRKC
As to the kind of experiment: EMSA; 20 mM HEPES-KOH pH 8.0, 100 mM KCl, 1.5 mM MgCl2, 5% glycerol, 0.1 ug/ul BSA, 1 ug/ul yeast RNA, 1 U/ul RiboLock; 5 nM RNA, 0.25-25 uM protein; 1 h on ice, gel. The conditions noted are these: protein: recombinant; tags: GST tag removed with PreScission protease (untagged); label: 5' 32P; hairpin.

For data set [2], the target named is T2, RBM41 RRM (C-terminal fragment) (Homo sapiens, UniProt Q96IZ5 267-413).
T2 sequence: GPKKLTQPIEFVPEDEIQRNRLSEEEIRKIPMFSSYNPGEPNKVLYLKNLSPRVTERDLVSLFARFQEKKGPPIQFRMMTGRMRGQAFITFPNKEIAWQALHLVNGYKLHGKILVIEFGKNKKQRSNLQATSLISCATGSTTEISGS
The data set is described as above. The settings on record: protein: recombinant; tags: GST tag removed with PreScission protease (untagged); label: 5' 32P; hairpin.

On to GCCACCUACUUCGUGGC (structured_RNA) [U6atac-(92-108) hairpin], for which the Kd in data set [1] amounted to 2070 nM; in data set [2] it was 3780 nM.

For the molecule GGGCGGAUGAAACGCCC (structured_RNA) [U12comp control hairpin], the binding result in data set [1] and in data set [2] was “no binding” each time.

As for CCCGCCUACUUUGCGGG (structured_RNA) [U12-(109-125) hairpin], the dissociation constant (Kd) in data set [1] came out at 1040 nM; in data set [2] it was 2140 nM.
